How the values were obtained:
[1] = biological target: T1, c-Fms kinase in the U2OS-GFP-STAT1/CSF-1R cells (Homo sapiens, UniProt P07333); assay: Dose-effect of hrM-CSF inducing GFP-STAT1 nuclear translocation in U2OS-GFP-STAT1/CSF-1R cells; assay type: cell-based; conditions: 30 minutes
T1 construct: comprising full-length cDNA of human c-Fms; expressed in transfected cells; host or cells: human osteosarcoma U2OS cells stably expressing GFP-STAT1 (U2OS-GFP-STAT1/CSF-1R)
Method: In order to quantitatively detect the extent of nuclear translocation of GFP-STAT1 induced by hrM-CSF, in this Example, in Cell Analyzer 1000 or In Cell Analyzer 2000 was used to obtain the cell image of GFP-STAT1 nuclear translocation. The cell image obtained was analyzed by using Nuclear Trafficking Analysis Module, wherein the translocation index represents the extent of nuclear translocation of GFP-STAT1. Translocation index equals to the ratio of the mean fluorescence intensity of nucleus to the mean fluorescence intensity of cytoplasm of the cells obtained per well. The steps were as follows: • 1) seeding the cells to a 96-well culture plate (which was black and transparent at the bottom), culturing in an incubator at 37° C., 5% CO2, 80% humidity for 24 hours; • 2) washing the cell twice with serum-free DMEM medium that contains 4500 mg/L glucose, 4 mM L-glutamine, 0.2% BSA and 10 mM HEPES (hereafter referred to as cell analytic liquid), wherein the cell analytic liquid was added at 100 μL/well for each time; after that, adding 50 μL cell analytic liquid to each well; • 3) adding the cell analytic liquid that contains hrM-CSF at 50 μL/well, […], and incubating the cells in an incubator at 37° C. for 30 minutes; • 4) fixing the cells with 8% formaldehyde diluted with 1×PBS solution and preheated at 37° C. at 100 μL/well, and placing the plate in dark at room temperature for 20 minutes; • 5) discarding the cell fixation solution, adding 1×PBS solution that contains hoechst33342 at 200 μL/well, placing the plate in dark at room temperature for 30 minutes; • 6) obtaining the cell image by using In Cell Analyzer 1000, analyzing the extent of nuclear translocation of GFP-STAT1 by using Nuclear Trafficking Analysis Module. […]

[2] = biological target: T1, c-Fms kinase in the U2OS-GFP-STAT1/CSF-1R cells; assay: Effect of the time for treating cells with hrM-CSF on GFP-STAT1 nuclear translocation; assay type: cell-based; conditions: 200 ng/mL hrM-CSF; 0-60 minutes
Method: The steps were as follows: • 1) using the cells prepared in the example 1 to prepare a cell suspension of 1×10^5 cells/mL, seeding the cells to a 96-well culture plate (which was black and transparent at the bottom) at 100 μL/well; and culturing the cells in an incubator at 37° C., 5% CO2, 80% humidity for 24 hours; • 2) washing the cells twice with the cell analytic liquid at 100 μL/well for each time, discarding the solution, and adding the cell analytic liquid at 50 μL/well; • 3) adding hrM-CSF diluted with the cell analytic liquid every 5 minutes, to obtain a final concentration of 200 ng/mL, setting the cell analytic liquid containing no hrM-CSF as the control, incubating the cells in an incubator at 37° C., and treating the cells with the cytokine for 0, 5, 10, 15, 20, 25, 30, 35, 40, 45, 50, 55, 60 minutes, respectively; • 4) adding the cell fixation solution preheated at 37° C. at 100 μL/well, slightly shaking the culture plate to mix the mixture uniformly, and placing the plate in dark at room temperature for 20 minutes; • 5) discarding the solution, adding 1×PBS solution that contains hoechst33342 at 200 μL/well, and placing the plate in dark at room temperature for 30 minutes; and • 6) obtaining the cell image by using In Cell Analyzer 2000, and analyzing the extent of nuclear translocation of GFP-STAT1 by using Nuclear Trafficking Analysis Module.

T1 sequence (P07333 20-972): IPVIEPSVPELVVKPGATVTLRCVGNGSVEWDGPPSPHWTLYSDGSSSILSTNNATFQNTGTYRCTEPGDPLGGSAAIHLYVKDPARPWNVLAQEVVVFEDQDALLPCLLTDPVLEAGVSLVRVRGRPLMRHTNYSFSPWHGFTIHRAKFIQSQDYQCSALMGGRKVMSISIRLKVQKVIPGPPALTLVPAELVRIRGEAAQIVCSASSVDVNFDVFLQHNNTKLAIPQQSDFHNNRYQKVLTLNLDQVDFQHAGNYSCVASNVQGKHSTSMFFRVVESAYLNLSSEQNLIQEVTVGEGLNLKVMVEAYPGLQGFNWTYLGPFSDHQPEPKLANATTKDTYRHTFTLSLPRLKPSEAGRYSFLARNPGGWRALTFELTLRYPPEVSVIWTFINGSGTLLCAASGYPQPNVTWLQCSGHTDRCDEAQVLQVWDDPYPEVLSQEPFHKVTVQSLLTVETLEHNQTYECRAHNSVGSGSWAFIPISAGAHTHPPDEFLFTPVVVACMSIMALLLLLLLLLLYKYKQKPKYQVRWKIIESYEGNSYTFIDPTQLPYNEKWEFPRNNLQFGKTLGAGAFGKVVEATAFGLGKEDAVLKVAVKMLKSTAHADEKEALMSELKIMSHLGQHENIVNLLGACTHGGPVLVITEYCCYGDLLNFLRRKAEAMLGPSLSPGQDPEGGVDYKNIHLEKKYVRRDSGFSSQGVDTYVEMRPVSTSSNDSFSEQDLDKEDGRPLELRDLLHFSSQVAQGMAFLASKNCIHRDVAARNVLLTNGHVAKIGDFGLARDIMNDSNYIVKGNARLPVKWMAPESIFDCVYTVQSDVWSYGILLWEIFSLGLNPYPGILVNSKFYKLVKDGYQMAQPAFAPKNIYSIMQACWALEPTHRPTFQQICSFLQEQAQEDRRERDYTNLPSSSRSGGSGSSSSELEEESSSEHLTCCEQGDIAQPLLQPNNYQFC

B1: hrM-CSF: recombinantly expressed human M-CSF (macrophage colony stimulating factor), ligand activating c-Fms (protein, UniProt P09603 33-554, looked up)
Macrophage colony-stimulating …: EEVSEYCSHMIGSGHLQSLQRLIDSQMETSCQITFEFVDQEQLKDPVCYLKKAFLLVQDIMEDTMRFRDNTPNAIAIVQLQELSLRLKSCFTKDYEEHDKACVRTFYETPLQLLEKVKNVFNETKNLLDKDWNIFSKNCNNSFAECSSQDVVTKPDCNCLYPKAIPSSDPASVSPHQPLAPSMAPVAGLTWEDSEGTEGSSLLPGEQPLHTVDPGSAKQRPPRSTCQSFEPPETPVVKDSTIGGSPQPRPSVGAFNPGMEDILDSAMGTNWVPEEASGEASEIPVPQGTELSPSRPGGGSMQTEPARPSNFLSASSPLPASAKGQQPADVTGTALPRVGPVRPTGQDWNHTPQKTDHPSALLRDPPEPGSPRISSLRPQGLSNPSTLSAQPQLSRSHSSGSVLPLGELEGRRSTRDRRSPAEPEGGPASEGAARPLPRFNSVPLTDTGHERQSEGSFSPQLQESVFHLLVPSVILVLLAVGGLLFYRWRRRSHQEPQRADSPLEQPEGSPLTQDDRQVELPV
[1]
  concentration of hrM-CSF at which extent of nuclear translocation of GFP-STAT1 reached the maximum: 600 ng/mL
  concentration of hrM-CSF at which nuclear translocation of GFP-STAT1 began: 10 ng/mL
[1]; n=6
  median effective concentration (EC50) of hrM-CSF for inducing GFP-STAT1 nuclear translocation: 0.0435 ± 0.00368 µg/mL
[2]
  treatment time at which extent of GFP-STAT1 nuclear translocation reached the maximum: 30 min
